Bridges are numbered along the chain shown (N, C = ends). Where no end group is shown, it is not given here. [ ]: non-standard residue; d: D form. The star is where a group is joined. Biotin = O=C1N[C@H]2[C@H](CS[C@H]2CCCCC(=O)*)N1; Oic = O=C(O)[C@@H]1C[C@@H]2CCCC[C@@H]2N1; 2Nal = N[C@@H](Cc1ccc2ccccc2c1)C(=O)O; Hyp = O=C(O)[C@@H]1C[C@@H](O)CN1; Pip = O=C(O)[C@@H]1CCCCN1; NMeA = CN[C@@H](C)C(=O)O; Ava = NCCCCC(=O)O; Sar = CNCC(=O)O
T1: alpha subunit of the human FcεRI receptor expressed on Chinese hamster ovary cells (human, UniProt P12319 26-257)
T1 construct: whole, on cells; also called CHO FcεRI+ cells
T1 sequence (looked up): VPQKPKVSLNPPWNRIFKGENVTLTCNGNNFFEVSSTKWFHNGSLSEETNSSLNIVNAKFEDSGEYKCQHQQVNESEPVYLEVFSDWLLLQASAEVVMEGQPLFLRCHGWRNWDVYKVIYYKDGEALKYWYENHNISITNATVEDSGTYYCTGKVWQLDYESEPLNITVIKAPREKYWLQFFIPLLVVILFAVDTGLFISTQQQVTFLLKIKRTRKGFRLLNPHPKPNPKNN

T2: alpha subunit of the human FcεRI receptor (IgE high affinity receptor), expressed on Chinese hamster ovary … (human, UniProt P12319 26-257)
T2 construct: whole, on cells; also called CHO FcεRI+ cells; FcεRIα
T2 sequence (looked up): T1 sequence (looked up)

B1: IGE103 (peptide)
peptide: Ac-NLPRCTEGP[2Nal]GWVCM
modifications: disulfide 5-14 (inferred)
notes: synthetic
B2: IGE063 (peptide)
peptide: Ac-NLPRCTEGPWGWVCM
modifications: disulfide 5-14 (inferred)
notes: synthetic
B3: IGE057 (peptide)
peptide: NLPRCTEGPWGWVCM-NH2
modifications: disulfide 5-14 (inferred)
notes: synthetic
B4: IGE077 (peptide)
peptide: NLPRCTEGPWGWYCM
modifications: disulfide 5-14 (inferred)
notes: synthetic
B5: IGE079 (peptide)
peptide: NLPRCTEAPWGWVCM
modifications: disulfide 5-14 (inferred)
notes: synthetic
B6: IGE208 (peptide)
peptide: Ac-NLPRCAEGPWGWVCM
modifications: disulfide 5-14 (inferred)
notes: synthetic
B7: IGE209 (peptide)
peptide: Ac-NLPRCTEGPWGWACM
modifications: disulfide 5-14 (inferred)
notes: synthetic
B8: IGE074 (peptide)
peptide: NLPRCTEGPWAWVCM
modifications: disulfide 5-14 (inferred)
notes: synthetic
B9: IGE106 (peptide)
peptide: Ac-NLPRCTEGPVGWVCM
modifications: disulfide 5-14 (inferred)
notes: synthetic
B10: IGE109 (peptide)
peptide: Ac-NLPRCTEGPWGLVCM
modifications: disulfide 5-14 (inferred)
notes: synthetic
B11: IGE072 (peptide)
peptide: NLPRCTEGPAGWVCM
modifications: disulfide 5-14 (inferred)
notes: synthetic
B12: IGE075 (peptide)
peptide: NLPRCTEGPWGWVCI
modifications: disulfide 5-14 (inferred)
notes: synthetic
B13: IGE073 (peptide)
peptide: NLPRCTEGPWGAVCM
modifications: disulfide 5-14 (inferred)
notes: synthetic
B14: IGE046 (peptide)
peptide: Ac-CTEGPWGWFCI-NH2
modifications: disulfide 1-10 (inferred)
notes: synthetic
B15: IGE044 (peptide)
peptide: Ac-CLEGPWGWFCI-NH2
modifications: disulfide 1-10 (inferred)
notes: synthetic
B16: IGE045 (peptide)
peptide: CLEGPWGWFCI-NH2
modifications: disulfide 1-10 (inferred)
notes: synthetic
B17: IGE080 (peptide)
peptide: Ac-CLEGPWGWVCI-NH2
modifications: disulfide 1-10 (inferred)
notes: synthetic
B18: IGE078 (peptide)
peptide: Biotin-NLPRCTEGPWGWVCM
modifications: disulfide 5-14 (inferred)
notes: synthetic
B19: IGE092 (peptide)
peptide: Ac-NLPRCTEGPWGWVC-NH2
modifications: disulfide 5-14 (inferred)
notes: synthetic
B20: IGE101 (peptide)
peptide: Ac-NLPRCTEG[Hyp]WGWVCM
modifications: disulfide 5-14 (inferred)
notes: synthetic
B21: IGE042 (peptide)
peptide: Ac-NLPRCTEGPWGWVCMAAD-NH2
modifications: disulfide 5-14 (inferred)
notes: synthetic
B22: IGE059 (peptide)
peptide: Ac-NLPRCTAGPWGWVCMAAD-NH2
modifications: disulfide 5-14 (inferred)
notes: synthetic
B23: IGE051 (peptide)
peptide: NLPRCTEGPNGWVCMAAD-NH2
modifications: disulfide 5-14 (inferred)
notes: synthetic
B24: IGE032 (peptide)
peptide: Ac-NLPRCTEGPKGWVCMADD-NH2
modifications: disulfide 5-14 (inferred)
notes: synthetic
B25: IGE050 (peptide)
peptide: Ac-NLPRCTEGPNGWVCMAAD-NH2
modifications: disulfide 5-14 (inferred)
notes: synthetic
B26: IGE031 (peptide)
peptide: Ac-NLPRCTEGPWGWVCMADD-NH2
modifications: disulfide 5-14 (inferred)
notes: synthetic
B27: IGE062 (peptide)
peptide: NLPRCTEGPWGWVCM
modifications: disulfide 5-14 (inferred)
notes: synthetic
B28: IGE069 (peptide)
peptide: PRCTEGPWGWVCM-NH2
modifications: disulfide 3-12 (inferred)
notes: synthetic
B29: IGE091 (peptide)
peptide: NLPRCTEGPWGWVC-NH2
modifications: disulfide 5-14 (inferred)
notes: synthetic
B30: IGE085 (peptide)
peptide: Ac-NLPRCTEG[Pip]WGWVCM-NH2
modifications: disulfide 5-14
notes: synthetic
B31: IGE086 (peptide)
peptide: Ac-NLPRCTEG[NMeA]WGWVCM-NH2
modifications: disulfide 5-14
notes: synthetic
B32: IGE097 (peptide)
peptide: Ac-NLPRCTEG[Sar]WGWVCM
modifications: disulfide 5-14 (inferred)
notes: synthetic
B33: IGE100 (peptide)
peptide: Ac-NLPRCTEG[Oic]WGWVCM
modifications: disulfide 5-14 (inferred)
notes: synthetic
B34: IGE047 (peptide)
peptide: CTEGPWGWFCI-NH2
modifications: disulfide 1-10 (inferred)
notes: synthetic
B35: IGE068 (peptide)
peptide: LPRCTEGPWGWVCM-NH2
modifications: disulfide 4-13 (inferred)
notes: synthetic
B36: IGE096 (peptide)
peptide: Ac-NLPRCTEG[NMeA]WGWVCM
modifications: disulfide 5-14 (inferred)
notes: synthetic
B37: IGE076 (peptide)
peptide: NLPRCTEGPWGWVCMAY
modifications: disulfide 5-14 (inferred)
notes: synthetic
B38: IGE058 (peptide)
peptide: Ac-NLPRCTEGPWGWVCM-NH2
modifications: disulfide 5-14 (inferred)
notes: synthetic
B39: IGE095 (peptide)
peptide: Ac-NLPRCTEG[Pip]WGWVCM
modifications: disulfide 5-14 (inferred)
notes: synthetic
B40: IGE090 (peptide)
peptide: Ac-EIQECTEGPWGWVCM-NH2
modifications: disulfide 5-14 (inferred)
notes: synthetic
B41: IGE087 (peptide)
peptide: Ac-NLPRCTEG[Sar]WGWVCM-NH2
modifications: disulfide 5-14
notes: synthetic
B42: IGE203 (peptide)
peptide: VQCPKFCYE[Ava]CPDVCYV-NH2
modifications: disulfide (positions not given here); not fully specified (bridges); printed as VQCPKFCYEavaCPDVCYV-nh2; also: dimer
B43: IGE200 (peptide)
peptide: VQCPKFCY[Ava]LCPDVCYV-NH2
modifications: disulfide (positions not given here); not fully specified (bridges); printed as VQCPKFCYavaLCPDVCYV-nh2
B44: IGE201 (peptide)
peptide: VQCPDFCY[Ava]LCPDQCYV-NH2
modifications: disulfide (positions not given here); not fully specified (bridges); printed as VQCPDFCYavaLCPDQCYV-nh2
B45: IGE202 (peptide)
peptide: VQCPDFCY[Ava]CPDVCYV-NH2
modifications: disulfide (positions not given here); not fully specified (bridges); printed as VQCPDFCYavaCPDVCYV-nh2

Target: T1, alpha subunit of the human FcεRI …
Assay: inhibition of 125I-IgE binding to CHO cells expressing human FcεRI alpha subunit
Experimental: To determine the ability of peptides to inhibit IgE binding to FcεRI, a cell-based binding assay was used with radiolabeled IgE. Chinese hamster ovary cells expressing the alpha subunit of the human FcεRI receptor were cultured overnight in Falcon 96 well microtiter plates at a concentration of 5 ×10^4 cells per well. The following day the cells were rinsed three times with PBS and then once with F12/DMEM. Peptide stocks were reconstituted in 100 mM Hepes buffered water, pH 7.2, at a concentration of 5 mg/mL. Working concentrations of the peptide were diluted in assay buffer (see below). 75 uL of a desired concentration of peptide was added to the top row of a separate 96 well microtiter plate and serially diluted 1:3 in 50 uL of the assay buffer (F12/DMEM, 1% BSA, 0.05% NaN_3 and 0.025 mM Hepes pH 7.2). Starting concentrations ranged from 50–500 uM. Next, 50 uL of the diluted peptide was transferred to the 96 microtiter well plate containing a monolayer of CHO FcεRI+ cells. […] Cells were […]

Row | IC50 | Binder
1 | 1.2 µM | B1
2 | 1.8 µM | B2
3 | 0.8 µM | B3
4 | 126 µM | B4
5 | 462 µM | B5
6 | 6.85 µM | B6
7 | 14.3 µM | B7
8 | 43 µM | B8
9 | 84 µM | B9
10 | 10.6 µM | B10
11 | 81.5 µM | B11
12 | 1.4 µM | B12
13 | 118 µM | B13
14 | 549 µM | B14
15 | 194 µM | B15
16 | 300 µM | B16
17 | 410 µM | B17
18 | 3.4 µM | B18
19 | 20 µM | B19
20 | 580 µM | B20
21 | 1.5 µM | B21

Row | IC50 | Binder
22 | 10.5 µM | B22
23 | 23.7 µM | B23
24 | 10.8 µM | B24
25 | 19.4 µM | B25
26 | 1.1 µM | B26
27 | 1 µM | B27
28 | 34 µM | B28
29 | 12.8 µM | B29
30 | 38.5 µM | B30
31 | 60 µM | B31
32 | 84 µM | B32
33 | 364 µM | B33
34 | 741 µM | B34
35 | 3.3 µM | B35
36 | 44 µM | B36
37 | 2 µM | B37
38 | 1.8 µM | B38
39 | 23 µM | B39
40 | 7.6 µM | B40
41 | 136 µM | B41

Target: T2, alpha subunit of the human FcεRI …
Assay: inhibition of 125I-IgE binding to CHO cells expressing human FcεRI alpha; competitor IgE
Method in brief: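 CHO cells expressing human FcεRI alpha were plated at 5 × 10^4 cells per well overnight, then given peptides serially diluted 1:3 from 50–500 uM starting concentrations in F12/DMEM with 1% BSA, 0.05% NaN3 and Hepes pH 7.2. Inhibition of 125I-IgE binding was measured.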

Row | IC50 | Binder
42 | 12.9 µM | B42
43 | 11.7 µM | B43
44 | 14.6 µM | B44
45 | 132 µM | B45

Reference: US7101851 (dated 2006)
